Measurements published in the Human Domainome abundance scans (Beltran et al. 2025).
± gives the uncertainty stated by the source.

B1: Peroxisome proliferator-activated receptor delta, residues 71 to 145; numbered along this chain, Q03181 (parent)
chain: NMECRVCGDKASGFHYGVHACEGCKGFFRRTIRMKLEYEKCERSCKIQKKNRNKCQYCRFQKCLALGMSHNAIRF

Variants of: B1
Experiment: abundance fitness (aPCA) (normalised: wild type 0, dead -1); higher = more abundant; growth selection in yeast, the domain comes from the species named
Details: Homo sapiens

First: NMECRVCGDKASGFHYGVHACEGCKGFFRRTIRMKLEYEKCERSCKIQKKNRNKCQYCRFQKCLADGMSHNAIRF [L66D]
Second: NMECRVCGDKASGFHYGVHACEGCKGFFRRTIRMKLEYEKCERSCKIQKKNRNKCQYCRFQKCLAVGMSHNAIRF [L66V]
The abundance fitness of the first is lower: -0.521 ± 0.12 for the first, 0.113 ± 0.035 for the second.

NMECRVCGDKASGFHYGVHACEGCKGFFRRTIRMKLEYEKCERSCKIQKKNRNKCQYCRFQKCLANGMSHNAIRF [L66N] and NMECRVCGDKASGFHYGVHACEGCKGFFRRTIRMKLEYEKCERSCKIQKKNRNKCQYCRFQKCLATGMSHNAIRF [L66T] are within error of each other in abundance fitness: -0.014 ± 0.073 for the first, 0.086 ± 0.049 for the second.

NMECRVCGDKASGFHYGVHACEGCKGFFRRTIRMKLEYEKCERSCKIQKKNRNKCQYCRFQKCLAYGMSHNAIRF [L66Y] and NMECRVCGDKASGFHYGVHACEGCKGFFRRTIRMKLEYEKCERSCKIQKKNRNKCQYCRFQKCLACGMSHNAIRF [L66C] are within error of each other in abundance fitness: -0.345 ± 0.12 for the first, -0.15 ± 0.077 for the second.

NMECRVCGDKASGFHYGVHACEGCKGFFRRTIRMKLEYEKCERSCKIQKKNRNKCQYCRFQKCLAAGMSHNAIRF [L66A] and NMECRVCGDKASGFHYGVHACEGCKGFFRRTIRMKLEYEKCERSCKIQKKNRNKCQYCRFQKCLAQGMSHNAIRF [L66Q] are within error of each other in abundance fitness: -0.077 ± 0.048 for the first, 0.014 ± 0.056 for the second.

NMECRVCGDKASGFHYGVHACEGCKGFFRRTIRMKLEYEKCERSCKIQKKNRNKCQYCRFQKCLAIGMSHNAIRF [L66I] and NMECRVCGDKASGFHYGVHACEGCKGFFRRTIRMKLEYEKCERSCKIQKKNRNKCQYCRFQKCLAEGMSHNAIRF [L66E] are within error of each other in abundance fitness: 0.106 ± 0.059 for the first, 0.067 ± 0.046 for the second.

NMECRVCGDKASGFHYGVHACEGCKGFFRRTIRMKLEYEKCERSCKIQKKNRNKCQYCRFQKCLAFGMSHNAIRF [L66F] and NMECRVCGDKASGFHYGVHACEGCKGFFRRTIRMKLEYEKCERSCKIQKKNRNKCQYCRFQKCLAWGMSHNAIRF [L66W] are within error of each other in abundance fitness: -0.438 ± 0.11 for the first, -0.629 ± 0.12 for the second.

NMECRVCGDKASGFHYGVHACEGCKGFFRRTIRMKLEYEKCERSCKIQKKNRNKCQYCRFQKCLAHGMSHNAIRF [L66H] and NMECRVCGDKASGFHYGVHACEGCKGFFRRTIRMKLEYEKCERSCKIQKKNRNKCQYCRFQKCLARGMSHNAIRF [L66R] are within error of each other in abundance fitness: -0.436 ± 0.13 for the first, -0.315 ± 0.046 for the second.

Compared with NMECRVCGDKASGFHYGVHACEGCKGFFRRTIRMKLEYEKCERSCKIQKKNRNKCQYCRFQKCLAGGMSHNAIRF [L66G], NMECRVCGDKASGFHYGVHACEGCKGFFRRTIRMKLEYEKCERSCKIQKKNRNKCQYCRFQKCLASGMSHNAIRF [L66S] is higher in abundance fitness: -0.419 ± 0.051 for the first, 0.03 ± 0.039 for the second.

First: NMECRVCGDKASGFHYGVHACEGCKGFFRRTIRMKLEYEKCERSCKIQKKNRNKCQYCRFQKCLAMGMSHNAIRF [L66M]
Second: NMECRVCGDKASGFHYGVHACEGCKGFFRRTIRMKLEYEKCERSCKIQKKNRNKCQYCRFQKCLAPGMSHNAIRF [L66P]
The abundance fitness of the first is higher: 0.109 ± 0.05 for the first, -0.681 ± 0.13 for the second.

NMECRVCGDKASGFHYGVHACEGCKGFFRRTIRMKLEYEKCERSCKIQKKNRNKCQYCRFQKCLAKGMSHNAIRF [L66K] and NMECRVCGDKASGFHYGVHACEGCKGFFRRTIRMKLEYEKCERSCKIQKKNRNKCQYCRFQKCLVLGMSHNAIRF [A65V] are within error of each other in abundance fitness: -0.018 ± 0.05 for the first, -0.075 ± 0.043 for the second.

Going from NMECRVCGDKASGFHYGVHACEGCKGFFRRTIRMKLEYEKCERSCKIQKKNRNKCQYCRFQKCLQLGMSHNAIRF [A65Q] to NMECRVCGDKASGFHYGVHACEGCKGFFRRTIRMKLEYEKCERSCKIQKKNRNKCQYCRFQKCLRLGMSHNAIRF [A65R], the abundance fitness falls from -0.001 ± 0.052 to -0.086 ± 0.032.

First: NMECRVCGDKASGFHYGVHACEGCKGFFRRTIRMKLEYEKCERSCKIQKKNRNKCQYCRFQKCLYLGMSHNAIRF [A65Y]
Second: NMECRVCGDKASGFHYGVHACEGCKGFFRRTIRMKLEYEKCERSCKIQKKNRNKCQYCRFQKCLSLGMSHNAIRF [A65S]
The abundance fitness of the first is lower: -0.301 ± 0.11 for the first, -0.011 ± 0.037 for the second.

Going from NMECRVCGDKASGFHYGVHACEGCKGFFRRTIRMKLEYEKCERSCKIQKKNRNKCQYCRFQKCLPLGMSHNAIRF [A65P] to NMECRVCGDKASGFHYGVHACEGCKGFFRRTIRMKLEYEKCERSCKIQKKNRNKCQYCRFQKCLWLGMSHNAIRF [A65W], the abundance fitness rises from -0.819 ± 0.14 to -0.231 ± 0.049.

Compared with NMECRVCGDKASGFHYGVHACEGCKGFFRRTIRMKLEYEKCERSCKIQKKNRNKCQYCRFQKCLTLGMSHNAIRF [A65T], NMECRVCGDKASGFHYGVHACEGCKGFFRRTIRMKLEYEKCERSCKIQKKNRNKCQYCRFQKCLALHMSHNAIRF [G67H] is lower in abundance fitness: -0.073 ± 0.051 for the first, -0.714 ± 0.23 for the second.

NMECRVCGDKASGFHYGVHACEGCKGFFRRTIRMKLEYEKCERSCKIQKKNRNKCQYCRFQKCLALIMSHNAIRF [G67I] and NMECRVCGDKASGFHYGVHACEGCKGFFRRTIRMKLEYEKCERSCKIQKKNRNKCQYCRFQKCLALMMSHNAIRF [G67M] are within error of each other in abundance fitness: -0.74 ± 0.22 for the first, -0.497 ± 0.097 for the second.

NMECRVCGDKASGFHYGVHACEGCKGFFRRTIRMKLEYEKCERSCKIQKKNRNKCQYCRFQKCLALDMSHNAIRF [G67D] and NMECRVCGDKASGFHYGVHACEGCKGFFRRTIRMKLEYEKCERSCKIQKKNRNKCQYCRFQKCLALFMSHNAIRF [G67F] are within error of each other in abundance fitness: -0.441 ± 0.11 for the first, -0.459 ± 0.14 for the second.

NMECRVCGDKASGFHYGVHACEGCKGFFRRTIRMKLEYEKCERSCKIQKKNRNKCQYCRFQKCLALCMSHNAIRF [G67C] and NMECRVCGDKASGFHYGVHACEGCKGFFRRTIRMKLEYEKCERSCKIQKKNRNKCQYCRFQKCLALEMSHNAIRF [G67E] are within error of each other in abundance fitness: -0.469 ± 0.11 for the first, -0.525 ± 0.091 for the second.

NMECRVCGDKASGFHYGVHACEGCKGFFRRTIRMKLEYEKCERSCKIQKKNRNKCQYCRFQKCLALKMSHNAIRF [G67K] and NMECRVCGDKASGFHYGVHACEGCKGFFRRTIRMKLEYEKCERSCKIQKKNRNKCQYCRFQKCLALAMSHNAIRF [G67A] are within error of each other in abundance fitness: -0.407 ± 0.091 for the first, -0.411 ± 0.07 for the second.

In the case of NMECRVCGDKASGFHYGVHACEGCKGFFRRTIRMKLEYEKCERSCKIQKKNRNKCQYCRFQKCLALLMSHNAIRF [G67L], the abundance fitness is reported as -0.808 ± 0.091.
